The values below come from the nanobody polyreactivity screen of Harvey et al. (2022).

The nature of the data set: yeast display, Sf9 membrane polyspecificity reagent, FACS + sequencing; frameworks hold sequencing errors. A digest of the protocol:
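Galactose induction of a Saccharomyces cerevisiae BJ5465 synthetic nanobody display library ran 36–48 hours. The cells were then stained for 1 hour at 4 °C with 10% biotinylated, detergent-solubilized Sf9 membrane reagent, pulled down on streptavidin microbeads and FACS-sorted into low and high (top ~1%) gates on expression and reagent-binding fluorescence. Labels for polyreactivity follow the gate of origin.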
For the sequence “QVQLVESGGGLVQAGGSLRLSCAASGRIFRHKAMGWYRQAPGKETELVAAITSRGGTYYADSVKGRFTISRDNAKNTVYLQMNSLKPEDTAFYFCNADQALYSSGNKYDYWGQGTQVTVSS”, the “polyreactivity (PSR sort gate)” value is reported as “low polyreactivity”. As to “QVQLVESGGGLVQAGGSLRLSCAASGRIFRHNAMGWYRQAPGKESELVAAISGGGTTYYADSVKGRFTISRDNAKNTVYLQMNSLKPEDTAVYYCAARRRGSVGVGYAYPYNYWGQGTQVTVSS”, the “polyreactivity (PSR sort gate)” value was “high polyreactivity”. Take “QVQLVESGGGLVQAGGSLRLSCAASGRIFRHNTLGWYRQAPGKEREFVAAISRNGGITYYADSVKGRFTISRDNAKNTVYLQMNSLKPEDTAVYYCNAYTYRQNDYWGQGTQVTVSS”: the “polyreactivity (PSR sort gate)” value is on record as “high polyreactivity”. Regarding “QVQLVESGGGLVQAGGSLRLSCAASGRIFRHYAMGWYRQAPGKERELVAAINWNGGSTYYADSVKGRFTISRDNAKNTVYLQMNSLKPEDTAVYYCAARYRYVRGMDYWGQGTQVTVSS”, the “polyreactivity (PSR sort gate)” value is given as “high polyreactivity”. As for “QVQLVESGGGLVQAGGSLRLSCAASGRIFRKNVMGWYRQAPGKERELVAAITTRGGSTYYADSVKGRFTISRDNAKNTVYLQMNSLKPEDTAVYYCATRVQWNSRYDYWGQGTQVTVSS”, the “polyreactivity (PSR sort gate)” value is recorded as “high polyreactivity”. For the sequence “QVQLVESGGGLVQAGGSLRLSCAASGRIFRKYAMGWSRQAPGKERELVAAISVGGGSTRYADSVKGRFTISRDNAKNTVYLQMNSLKDEDTAVYYCAADWAYYVASYLYYTFDYWGQGTQVTVSS”, the “polyreactivity (PSR sort gate)” value is given as “low polyreactivity”. “QVQLVESGGGLVQAGGSLRLSCAASGRIFRLYAMGWYRQAPGKERELVAAIRASGGNTYYADSVKGRFTISRDNAKNTVYLQMNSLKPEDSAVYYCAADYWSRYYTVPEWYNYWGQGTQVTVSS”: the “polyreactivity (PSR sort gate)” value is on record as “high polyreactivity”.

For the sequence “QVQLVESGGGLVQAGGSLRLSCAASGRIFRLYAMGWYRQAPGKERELVAAISKSGGSTYYADSVKGRFTFSRDNAKNTVYLQMNSLKPEDTAVYYCAADYRTHGGYEGTFDYWGQGTQVTVSS”, the “polyreactivity (PSR sort gate)” value is reported as “low polyreactivity”. Regarding “QVQLVESGGGLVQAGGSLRLSCAASGRIFRLYAMGWYRQAPGKERELVAAISKSGGSTYYADSVKGRFTISRDTATNTVYLQMNSLKPEDTAVYYCAADYRTHGGYEGTFDYWGQGTQVTVSS”, the “polyreactivity (PSR sort gate)” value is reported as “low polyreactivity”. Regarding “QVQLVESGGGLVQAGGSLRLSCAASGRIFRNYAMGWYRQAPGKERELVAAISGNGGNTYYADSVKGRFTISRDNAKNTVYLQMNSLKPEDTAVYYCNAYHWLYSYRYSRTYDYWGQGTQVTVSS”, the “polyreactivity (PSR sort gate)” value was “high polyreactivity”. For “QVQLVESGGGLVQAGGSLRLSCAASGRIFRPYAMGWYRQAPGKEREFVAAITQSGGITSYADSVKGRFTISRDNAKNTVYLQMNRLKPEDTAVYFCATTSRYTRSHYDWYDYWGQGTQVTVSS”, the “polyreactivity (PSR sort gate)” value is listed as “low polyreactivity”. With “QVQLVESGGGLVQAGGSLRLSCAASGRIFRPYAMGWYRQAPGKEREFVATIRFTTGRTYYADSVKGRFTISRDNAKNTVYLQMNSLKPEDTAVSYFAADFAFVNYAKISYTTHDYWGQGTQVTVSS” the entry was “high polyreactivity”; with “QVQLVESGGGLVQAGGSLRLSCAASGRIFRPYAMGWYRQAPGKERELVARINGSGGSTYYADSVKGRFTISRDTAKNTVYFQMNSLKPEDTAVYYCNVRRIIRYLGYTHTKISWLDYWGQGTQVTVSS”, “high polyreactivity”; with “QVQLVESGGGLVQAGGSLRLSCAASGRIFRQNVMGWYRQAPGKERELVAGISRSGSGTRYADSVKGRFTISRDNAKNTVYLQMNSLKPEDTAVYYCNTLVPFSTWRYGYWGQGTQVTVSS”, “high polyreactivity”. Regarding “QVQLVESGGGLVQAGGSLRLSCAASGRIFRQYTMGWNRQAPGKERELVAAITGTRGSTYYADSVKGRFTISRDNAKNTVYLQMNSLKPVDTAVYSCDADYSARYGYWGQGTQVTVSS”, the “polyreactivity (PSR sort gate)” value is “high polyreactivity”. Turning to “QVQLVESGGGLVQAGGSLRLSCAASGRIFRRNAMGWYRPAPGKERELVAGITWSGGTTYYADSVKGRFTISRDNAKNTVYLQMNSLKPEDTAVYYCNAGRSKWLSRYDYWGQGTQVTVSS”, the “polyreactivity (PSR sort gate)” value is recorded as “high polyreactivity”. Regarding “QVQLVESGGGLVQAGGSLRLSCAASGRIFRRNAMGWYRQAPGKEREFVAAITSSGDSTNYADSVKGRFTISRDNAKNTVYLQMNSLKPEDTAVYYCAADWARSALQGFYYWGQGTQVTVSS”, the “polyreactivity (PSR sort gate)” value was “low polyreactivity”. Turning to “QVQLVESGGGLVQAGGSLRLSCAASGRIFRRNAMGWYRQAPGKEREFVATITSGGSTFYADSVKGRFTISRDNAKNTVYLQMNSLKPEDTAVYYCAAPSYNTPFHTPNYSWGQGTQVTVSS”, the “polyreactivity (PSR sort gate)” value is recorded as “low polyreactivity”. With “QVQLVESGGGLVQAGGSLRLSCAASGRIFRRNAMGWYRQAPGKERELVAAITSSGGNTYYADSVKGRFTISRDNAKNTVYLQMNSLKPEDTAVYYCAAELRPYITYDGPRKKFYYWGQGTQVTVSS”, the “polyreactivity (PSR sort gate)” value is reported as “high polyreactivity”.

Consider “QVQLVESGGGLVQAGGSLRLSCAASGRIFRRNTMGWSRPAPGTERELVAAITSRGGSTYYADSVKGRFTISRDNAKNTVYLQMNSLKPADTAVYYCNTRVVPEIYDYWGQGTQVTVSS”, for which the “polyreactivity (PSR sort gate)” value is “high polyreactivity”.

Take “QVQLVESGGGLVQAGGSLRLSCAASGRIFRRYAMGCYIQAPGKERELVAGITGSGTSTYYADSVKGRFTISRDNAKNTVYLQMNSLKPEDTAVYYCAADRGRGYRYNYWGQGTQVTVSS”: the “polyreactivity (PSR sort gate)” value is on record as “high polyreactivity”. On to “QVQLVESGGGLVQAGGSLRLSCAASGRIFRRYAMGWYRQAPGKERELVAAISSRGGSTYYADSVKGRFTISRDNAKNTVYLQMNSLKPEDTAVYYCNADVSASEYDYWGQGTQVTVSS”, for which the “polyreactivity (PSR sort gate)” value is “high polyreactivity”. For the sequence “QVQLVESGGGLVQAGGSLRLSCAASGRIFRRYAMGWYRQAPGKERELVAAITRSGGSTYYADSVKGRFTISRDNAKNTVYLQMNSLKPEDTAVYYCNAPSSLGTDYDYWGQGTQVTVSS”, the “polyreactivity (PSR sort gate)” value was “high polyreactivity”. Take “QVQLVESGGGLVQAGGSLRLSCAASGRIFRRYAMGWYRQAPGKERELVASISSGGSTNYADSVNGRFTISRDNAKNTVYLQMNSLKPEDTAVYYCAASYPSIYYYRYDYWGKGTQVTVSS”: the “polyreactivity (PSR sort gate)” value is “high polyreactivity”.

For “QVQLVESGGGLVQAGGSLRLSCAASGRIFRRYAMGWYRQAPGKERELVATISRGGSNTSYADSVKGRFTISRDNAKNTVYLQMNSLKPEDSAVYYCAKGSVRYYVGFDYWGQGTQVTVSS”, the “polyreactivity (PSR sort gate)” value is listed as “high polyreactivity”. Regarding “QVQLVESGGGLVQAGGSLRLSCAASGRIFRRYARGWYRQAPGKERELVATISRGGSNTSYADSVKGRFTISRDNAKNTVYLQMNSLKPEDTAVYYCAKGSVRYYVGYDYWGQGTQVSVSS”, the “polyreactivity (PSR sort gate)” value is on record as “high polyreactivity”. With “QVQLVESGGGLVQAGGSLRLSCAASGRIFRRYTIGWYRQAPGKEWELVAGISSGGSTKYADSVKGRFTISRDNAKNTVYLQMNSLKPEDTAVYYCNRRCPIYGSRFGYYYWGQGTQVTVSS”, the “polyreactivity (PSR sort gate)” value is given as “high polyreactivity”. For “QVQLVESGGGLVQAGGSLRLSCAASGRIFRSNAMGWYRQAPGKERELVAAISSNGGSTYYADSVKGRFTISRDNAKNPVYLQMNSLKPEDTAVYYCAARVYYPVRYGYWGQGTQVTVSS”, the “polyreactivity (PSR sort gate)” value was “high polyreactivity”.

Turning to “QVQLVESGGGLVQAGGSLRLSCAASGRIFRSYAMGWYRQAPGKDRELVAAISSGDTTNYADSVKGRFTISRDNAKNTVYLQMNSLKPEDTAVYYCAAGFYYRGGYIQYEMNYWGQGTQVTVSS”, the “polyreactivity (PSR sort gate)” value is listed as “high polyreactivity”. With “QVQLVESGGGLVQAGGSLRLSCAASGRIFRSYAMGWYRQAPGKERELVAAINYGGTSTYYADSVKGRFTISRDNAKNTVYLQMNSLKPEDTAVYYCAARRPTSPRRYESRGQGTQVTVSS”, the “polyreactivity (PSR sort gate)” value is reported as “high polyreactivity”.

Take “QVQLVESGGGLVQAGGSLRLSCAASGRIFRSYAMGWYRQAPGKERELVAAISQRGGRTYYADSVKGRFTISRDNAKNTVYLQMNSLKPEDTAVYYCAKSNPKLGYYYLQGDLYDYWGQGTQVTVSS”: the “polyreactivity (PSR sort gate)” value is listed as “low polyreactivity”.

“QVQLVESGGGLVQAGGSLRLSCAASGRIFRSYAMGWYRQAPGKERELVAAISQRGGSTYYADSVKGRFTISRDNAKNTVYLQMNSLKPEDTAVYYCNKERRNSGKFDYWGQGTQVTVSS”: the “polyreactivity (PSR sort gate)” value is given as “high polyreactivity”. For “QVQLVESGGGLVQAGGSLRLSCAASGRIFRSYAMGWYRQAPGKERELVAAITSGGSTNYADSVKGRFTISRDNAKNTVYLQMNSLKPEDTAVYYCNADRWKSGYWRYDYWGQGTQVTVSS”, the “polyreactivity (PSR sort gate)” value is recorded as “low polyreactivity”. As to “QVQLVESGGGLVQAGGSLRLSCAASGRIFRTNAMGWYRQAPGKERELVAAITFSGGGTYYADSVKGRFTISRDNAKNTVYLQMNSLKPEDTAVYYCATDWYYEYYYWGQGTQVTVSS”, the “polyreactivity (PSR sort gate)” value is recorded as “low polyreactivity”. For the sequence “QVQLVESGGGLVQAGGSLRLSCAASGRIFRTNAMGWYRQAPGKERELVASINSDGSTNYADSVKGRFTISRDNAKNTVYLQMNSLKPDDTAVYYCAAGYFWGRIKYYYWGQCTQVTVSS”, the “polyreactivity (PSR sort gate)” value was “high polyreactivity”. On to “QVQLVESGGGLVQAGGSLRLSCAASGRIFRTYAMGWYRQAPGKERELVASISWGGGSRTYADSVKGRFTISRDNAKNTVYLQMNSLKPEDTGVYYCAADVHYTFGMDYWGQGTQVTVSS”, for which the “polyreactivity (PSR sort gate)” value is reported as “high polyreactivity”.

In the case of “QVQLVESGGGLVQAGGSLRLSCAASGRIFRVNTMGWYRQAPGKERELVAAISTSGGTTYYADSVKGRFTISRDNAKNTVYIQLNSLKPEDTAVYYCNASYLTRRDGYIEDAIYDYWGQGTQVTVSS”, the “polyreactivity (PSR sort gate)” value was “low polyreactivity”. Consider “QVQLVESGGGLVQAGGSLRLSCAASGRIFRVNTMGWYRQSPGKERELVAAIRSSGTRTYYADSVKGRFTISRDNAKNTVYLQMNSLKPEDTAVYYCAATGRRGSGYYYWGQGTQVTVSS”, for which the “polyreactivity (PSR sort gate)” value is given as “high polyreactivity”. With “QVQLVESGGGLVQAGGSLRLSCAASGRIFRVYAMGWYRQAPGKERELVAAINRSGGTTYYADSVKGRFTISRDNAKHTVYLQMNSLKPEDTAVYYCNAPVRRDVAYGYWGQGTQVTVSS” the entry was “high polyreactivity”.

Take “QVQLVESGGGLVQAGGSLRLSCAASGRIFRVYAMGWYRQAPGKERELVAAISWSGGRTYYADSVKGRFTISRDNAKNTVYLQMNSLKPEDTAVYYCAAVSCYALGFDYWGQGTQVTVSS”: the “polyreactivity (PSR sort gate)” value is recorded as “high polyreactivity”.
